Nine molecules from patent US20240294650A1 (Alector, published 2024) can be followed below.

One test deals with T1, human MerTK (human, UniProt Q12866 21-999).
T1 sequence: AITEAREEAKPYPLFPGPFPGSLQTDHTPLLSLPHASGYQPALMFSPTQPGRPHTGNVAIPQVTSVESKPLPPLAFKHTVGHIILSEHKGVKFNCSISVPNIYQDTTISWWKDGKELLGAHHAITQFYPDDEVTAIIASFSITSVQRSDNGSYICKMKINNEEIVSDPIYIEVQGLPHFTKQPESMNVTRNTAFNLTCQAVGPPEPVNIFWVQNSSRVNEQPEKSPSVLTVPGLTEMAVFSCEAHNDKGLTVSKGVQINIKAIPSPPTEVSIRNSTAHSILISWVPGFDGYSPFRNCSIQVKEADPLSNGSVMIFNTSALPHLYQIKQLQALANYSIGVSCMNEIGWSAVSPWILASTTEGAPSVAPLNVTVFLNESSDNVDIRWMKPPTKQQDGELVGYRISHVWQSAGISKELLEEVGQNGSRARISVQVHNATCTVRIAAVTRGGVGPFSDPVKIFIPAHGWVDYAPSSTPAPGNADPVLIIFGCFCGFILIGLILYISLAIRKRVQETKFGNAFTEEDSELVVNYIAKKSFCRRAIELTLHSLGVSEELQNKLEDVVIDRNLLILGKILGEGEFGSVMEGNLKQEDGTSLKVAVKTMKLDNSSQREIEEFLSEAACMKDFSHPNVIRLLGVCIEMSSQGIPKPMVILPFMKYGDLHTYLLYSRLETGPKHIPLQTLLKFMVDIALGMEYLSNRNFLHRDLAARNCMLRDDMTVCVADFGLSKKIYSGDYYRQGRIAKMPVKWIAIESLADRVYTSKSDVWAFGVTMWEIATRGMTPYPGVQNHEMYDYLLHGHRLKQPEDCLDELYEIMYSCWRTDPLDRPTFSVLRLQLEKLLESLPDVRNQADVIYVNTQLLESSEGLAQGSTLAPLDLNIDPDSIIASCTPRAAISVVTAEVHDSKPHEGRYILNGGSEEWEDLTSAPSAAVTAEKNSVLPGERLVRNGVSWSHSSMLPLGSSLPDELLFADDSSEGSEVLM
Kind of test: cell-based or functional assay.

Test [1] deals with T2, Full Axl (ECD domain of human Axl) (human, UniProt P30530 26-451).
T2 construct: also called human Axl ECD
T2 sequence: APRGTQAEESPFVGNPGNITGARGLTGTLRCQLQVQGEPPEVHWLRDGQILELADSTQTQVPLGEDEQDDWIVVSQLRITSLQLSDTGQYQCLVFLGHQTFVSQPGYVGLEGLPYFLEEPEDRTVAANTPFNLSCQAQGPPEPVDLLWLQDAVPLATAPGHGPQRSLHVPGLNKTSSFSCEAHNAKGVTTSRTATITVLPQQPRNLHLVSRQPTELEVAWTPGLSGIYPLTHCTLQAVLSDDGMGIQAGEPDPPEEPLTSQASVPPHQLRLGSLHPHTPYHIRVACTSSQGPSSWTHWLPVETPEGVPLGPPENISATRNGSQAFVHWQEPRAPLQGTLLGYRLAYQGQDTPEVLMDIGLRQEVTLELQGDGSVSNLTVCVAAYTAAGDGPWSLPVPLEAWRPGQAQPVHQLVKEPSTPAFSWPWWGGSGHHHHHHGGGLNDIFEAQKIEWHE
Put plainly: SPR (data not shown). In outline:
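Epitope mapping by SPR: construct-containing supernatants (1:1 in HBS-TE running buffer, 0.5 mg/mL BSA) flowed over immobilised anti-MerTK antibodies, surface regenerated between injections with 10 mM glycine pH2.0. Binding patterns of Axl/MerTK chimeras and deletion mutants scored to assign domains.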

In test [2] the target is T3, Recombinant human MerTK-human Fc Chimera protein (human, UniProt Q12866 26-499, limits assumed).
T3 construct: bought construct; also called MerTK-Fc (R&D systems, Cat #391-MR-100)
T3 sequence: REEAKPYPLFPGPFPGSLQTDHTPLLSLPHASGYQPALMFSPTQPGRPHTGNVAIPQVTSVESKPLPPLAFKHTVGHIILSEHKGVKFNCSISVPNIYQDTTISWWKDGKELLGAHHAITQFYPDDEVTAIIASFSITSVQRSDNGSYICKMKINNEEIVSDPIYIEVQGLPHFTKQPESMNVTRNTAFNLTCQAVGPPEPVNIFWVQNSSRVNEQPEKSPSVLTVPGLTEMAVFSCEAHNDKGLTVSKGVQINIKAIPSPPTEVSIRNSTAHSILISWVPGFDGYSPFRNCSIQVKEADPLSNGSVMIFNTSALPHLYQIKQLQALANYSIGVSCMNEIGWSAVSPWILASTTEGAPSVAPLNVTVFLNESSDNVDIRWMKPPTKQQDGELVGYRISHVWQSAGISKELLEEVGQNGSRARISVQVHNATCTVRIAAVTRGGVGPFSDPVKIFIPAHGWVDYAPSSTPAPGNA
Put plainly: blocking ELISA, Gas6-His on MerTK-Fc, Ab 66.6 nM, isotype=100%. On the procedure:
Briefly, rabbit anti-human IgG antibody (Jackson ImmunoResearch, Cat #309-005-008) was coated at 2 μg/ml onto high-protein binding plates at 4° C. overnight. After washing with 0.05% Tween20 in PBS three times, 5% BSA in PBS was added for 1 hour. Recombinant human MerTK-human Fe Chimera protein (R&D systems, Cat #391-MR-100) was added at 2 μg/ml for 1 hour and plates were washed before the addition of 40 μl of anti-MerTK hybridoma supernatants and 40 μl of His tag-conjugated recombinant Gas6 (R&D systems, Cat #885-GSB-050) at 3 μg/ml or His tag-conjugated recombinant ProS (R&D systems, Cat #9489-PS-100) at 20 μg/ml. After a further incubation for 1 hour, plates were washed and incubated for 1 hour with HRP-conjugated anti-6×His tagged antibody (Abcam, Cambridge, MA, Cat #ab1187). Plates were then washed and an HRP substrate, TMB, was added to develop the plates. The reaction was stopped by adding 50 μl 2N H₂SO₄ and the OD was measured using a spectrophotometer (BioTek).
Anti-MerTK antibodies were titrated to a final concentration from 66.6 nM to 4 pM and tested against anti-human MerTK antibody M6 (disclosed in WO2016/106221) or isotype control antibody.
On the technique in general: An ELISA detects its analyte on a solid surface through an enzyme-linked reagent.

B1: MTK-220 (antibody, V domains shown)
VH: EVQLVESGGGLVKPGGSLKLSCAASGFTFSDYGMHWVRQAPEKGLEWVAFISGGSGTIYYEDTVKGRFTISRDNAKNTLFLQMTSLRSEDTAMYYCTRGGNYFDYWGQGTTLTVSS
VL: NIMLTQSPSSLAVSAGEKVTMTCKSSQSVLYSSNQKNYLAWYQQKPGQSPKLLIYWASTRESGVPDRFTGSGSGTDFTLTISNVQAEDLAVYYCHQYFSSWTFGGGTKLEIK
Regarding B1, the “Fold increase in PAKT over IgG control” value in the test with human MerTK is 3.6 fold. The binding result in test [1] is given as “no binding”. The “Percent Gas6 ligand binding” value in test [2] was 97%.

B2: MTK-202 (antibody, human IgG1, V domains shown)
VH: EVQLVESGGGLVKPGGSLKLSCAASGFTFSDFGMHWVRQVPEKGLEWVAFISGGSNTIYYTDTVKGRFTISRDNAKNTLFLQMTSLRSEDTAMYYCVRNGNSFAYWGQGTLVTVSA
VL: NIMMTQSPSSLAVSAGEKVTMNCKSSQSVLYSSNQKNYLAWYQQKPGQSPKLLIYWASTRESGVPDRFTGSGSGTDFTLTISNIQAEDLAIYYCHQYFFSWTFGGGTKLEIK
With B2, in the test with human MerTK, the “EC50 (nM), pAKT in SK-MEL-5 cells” value is 1.01 nM and the “Fold increase in PAKT over IgG control” value amounted to 3 fold. The binding result in test [1] was “no binding”. Further, the “Percent Gas6 ligand binding” value in test [2] came out at 101%.

B3: MTK-204 (antibody, human IgG1, V domains shown)
VH: EVQLVESGGGLVKPGGSLKLSCAASGFTFSDYGMHWVRQAPEKGLEWVAYISSGTSTIYYEDTVKGRFTISRDNAKNTLFLQMTSLRSEDTAMYYCARGGLLFDYWGQGTTLTVSS
VL: NIMMTQSPSSLAVSAGEKVTMSCKSSQSVLYSSNQKNYLAWYQQKPGQSPKLLIQWASTRESGVPDRFTGSGSETDFTLTIRSVQAEDLAVYYCHQYFSSWTFGGGTKLEIK
In the case of B3, the “Fold increase in PAKT over IgG control” value with human MerTK stood at 3 fold. Further, the binding result in test [1] was “no binding”. Also, in test [2], the “Percent Gas6 ligand binding” value was found to be 121%.

B4: MTK-206 (antibody, human IgG1, V domains shown)
VH: QVQLQQSGAELARPGASVKMSCKASGYTFTSYTMHWVKQRPGQGLEWIGYINPSSGYIKNSQKFKDKATLTADKSSSTAYMQLSSLTSEDSAVYYCARTVYGYYGSSPDYWGQGTTLTVSS
VL: DIQMTQSPSSLSASLGERVSLTCRASQDIGSNLNWLQQEPDGTIKRLIYATSSLESGVPKRFSGSRSGSDYSLTISSLESEDFVDYYCLQYDSSPWTFGGGTKLEIK
As for B4, in the test with human MerTK, the “Fold increase in PAKT over IgG control” value is 3.1 fold. Also, in test [1], the binding result is given as “no binding”. For the same molecule, the “Percent Gas6 ligand binding” value in test [2] came out at 103%.

B5: MTK-210 (antibody, human IgG1, V domains shown)
VH: QVQLQQSGPELVKPGASVKISCKASDYEFSRSWMNWVKQRPGKGLEWIGRIYPGDGDTNYNGKFKGKATLTADKSSNTAYMQLNSLTSEDSAVYFCARKGGYYYSISNYFDYWGQGTTLTVSS
VL: QIVLTQSPAIMSASPGVKVTMTCSASSSVSYMHWYQQKPGSSPRLLIYDTSNLASGVPVRFSGSGSGTSYSLTISRMEAEDAATYYCQQWSSYPPYTFGGGTKLEIK
As to B5, in the test with human MerTK, the “EC50 (nM), pAKT in SK-MEL-5 cells” value came to 15 nM and the “Fold increase in PAKT over IgG control” value was 3.3 fold. Further, the binding result in test [1] is on record as “no binding”. For the same molecule, the “Percent Gas6 ligand binding” value in test [2] was found to be 114%.

B6: MTK-219 (antibody, human IgG1, V domains shown)
VH: QVQLQQSGADLMKPGASVKLSCKATGNTFTGYWIEWVKQRPGHGLEWIGEILTGSGSTNYNERFKGKATFTADTSSNTAYMQLSSLTTEDSAIYYCAGSYFTNSWFPYWGQGSLVTVSA
VL: DIVLTQSPASLAVSLGQRATISCRASESVDSYGNSFMHWYQQKPGQPPKLLIYRAYTLESGIPARFSGSGSRTDFTLTINPVEADDVATYYCQQSNEDPRTFGGGTKLEIK
For B6, in the test with human MerTK, the “Fold increase in PAKT over IgG control” value was determined as 3.5 fold. In test [1], the binding result is listed as “no binding”. For the same molecule, the “Percent Gas6 ligand binding” value in test [2] amounted to 106%.

B7: MTK-222 (antibody, human IgG1, V domains shown)
VH: QVQLQQSGADLMKPGASVKLSCKATGYTFTGYWIEWVKQRPGHGLEWIGEILTGSGSSNYNEKFKGKATFTADSSSNTAFMQLSSLTTEDSAIYYCAGSYYSNSWFPYWGQGSLVTVSA
VL: DIVLTQSPVSLAVSLGQRATISCRASESVDSYGSSFMHWYQQKPGQPPKLLIYRASSLESGIPARFSGSGSRTDFTLTINPVETDDVATYYCQQSNEDPRTFGGGTKLEIK
With B7, the “Fold increase in PAKT over IgG control” value in the test with human MerTK came to 4.6 fold. Besides, in test [1], the binding result is reported as “no binding”. Also, the “Percent Gas6 ligand binding” value in test [2] came out at 105%.

B8: MTK-213 (antibody, human IgG1, V domains shown)
VH: QVQLQQPGAELVKPGASVKMSCKASGYTFTSYWITWVKQRPGQGHEWIGEIYPGIGSTNYNEKFKSKATLTVDTSSRTAYMQLSSLTSEDSAVYFCARGAYTKYYFDYWGQGTTLTVSS
VL: DIVMTQSHKFMSTSVGDRVSITCKASQDVGDAVAWYQQKPGQTPKLLIYWASTRHTGVPDRFTGSGSGTDFTLTISNVQSEDLADYFCQQYSSYLMYTFGGGTKLEIK
Take B8: the “Fold increase in PAKT over IgG control” value with human MerTK was found to be 3.7 fold. For the same molecule, the binding result in test [1] is given as “no binding”. Also, the “Percent Gas6 ligand binding” value in test [2] stood at 102%.

B9: MTK-212 (antibody, human IgG1, V domains shown)
VH: QVQLQQSGPELVKPGASVKISCKASGYAFSSSWVNWVKQRPGKGLEWIGRIYPGDGDSNYNGNFKGKATLTADKSSNTAYLQLSSLTSEDSAVYFCARKSHFIYYTLDYWGQGTPVTVSS
VL: DIVMTQSHKFKSTSVGDRVSIACKASQDVGTSVAWYQQKPGKSPKLLIYWASSRHTGVPDRFTGSGSGTDFTLTISNVQSEDLTDYFCQQYSTYPYTFGGGTKLEIK
On to B9, for which, in the test with human MerTK, the “EC50 (nM), pAKT in SK-MEL-5 cells” value came out at 96.9 nM and the “Fold increase in PAKT over IgG control” value was found to be 3.3 fold. For the same molecule, the binding result in test [1] was “no binding”. For the same molecule, the “Percent Gas6 ligand binding” value in test [2] was found to be 122%.
